These results are taken from patent US20170320927A1 (Novo Nordisk, published 2017).

Starred links: 1 amine or outer side, 2 acyl side, 3 side chain; linkers in the order of their positions; H or OH if unused. Non-standard residues stand in square brackets, D forms with d. Groups on a side chain read outwards from the residue. No end group written: not given here. *: point of attachment. Amino‑C3‑Gly(Bis) = branched linker 2-[bis(3-aminopropyl)amino]acetyl, two legs on the propylamino groups, O=C(CN(CCCN[*:1])CCCN[*:3])[*:2]; C20 diacid = O=C(O)CCCCCCCCCCCCCCCCCCC(=O)*; C18 diacid = O=C(O)CCCCCCCCCCCCCCCCC(=O)*; γGlu = O=C(O)[C@H](CCC(=O)[*:2])N[*:1]; Trx = NC[C@H]1CC[C@H](C(=O)O)CC1; AEEA = NCCOCCOCC(=O)O; Aib = CC(C)(N)C(=O)O

The target in assay [1] is T1, human GLP-1 receptor (human, UniProt P43220 24-463). Briefly: cell-based or functional assay.
The target of assay [2] is T1, human GLP-1 receptor. Briefly: competitive SPA, displacement of [125I]-GLP-1-(7-36)NH2 from BHK membranes with human GLP-1 receptor, high HSA (2.0%). The protocol: (§1) 1. For the receptor binding assay in the presence of low HSA (0.005%) 50 μl of the assay buffer was added to each well of an assay plate. Assay continued with step 3. 2. For the receptor binding assay in the presence of high HSA (2%) 50 μl of the 8% albumin stock was added to each well of an assay plate. Assay continued with step 3. 3. […] 4. Cell membrane aliquots were thawed and diluted to their working concentration. Fifty μl were added to each well in the assay plate. 5. WGA SPA beads were suspended in assay buffer at 20 mg/ml. The suspension was diluted to 10 mg/ml in assay buffer just prior to addition to the assay plate. Fifty μl were added to each well in the assay plate. 6. […] A 25 μl aliquot was reserved for measuring total counts/well. 7. The assay plate was incubated for 2 h at 30° C. 8. The assay plate was centrifuged for 10 min. 9. The assay plate was read in a Packard TopCount NXT instrument.
(§2) The data from the TopCount instrument were transferred to GraphPad Prism software. Individual replicates were analysed using non-linear regression.
For orientation: Displacement assays read how much labelled ligand stays bound in the presence of the test substance.

Assay [3] concerns the target T1, human GLP-1 receptor. Briefly: competitive SPA, displacement of [125I]-GLP-1-(7-36)NH2 from BHK membranes with human GLP-1 receptor, low HSA (max. 0.001%). The protocol: as §1, with “For the receptor binding assay in the presence of low HSA (0.005%) 50 μl of the assay buffer was added to each well of an assay plate.” left out
as §2

B1: N{Epsilon-37}-[2-[3-[[2-[2-[2-[[2-[2-[2-[[2-[2-[2-[[2-[2-[2-[[(2S)-2- … (peptide)
peptide: XXEGTFTSDVSSYLEEQAAREFIAWLVRGRK
modifications: not fully specified; Imp (imidazopropionic acid, deamino-histidine) at 7; Aib at 8; Lys37 epsilon-acylated with the branched side chain of the name (GLP-1(7-37) numbering, first residue = 7)
Broadly, the IC50 is the point on the concentration scale where inhibition reaches its midpoint. As to B1, the “EC50 (pM), in vitro potency, CRE luciferase reporter gene assay in BHK cells expressing the human GLP-1 receptor” value (“EC50 (pM), in vitro potency” for short) with human GLP-1 receptor [1] was determined as 12 pM. Besides, the IC50 in the assay with human GLP-1 receptor [2] was 45 nM; with human GLP-1 receptor [3], 0.13 nM.

B2: N{Alpha}([Aib8,Glu22,Arg26,Arg34,Pro37]-GLP-1-(7-37)-peptidyl)-N{Epsilon}[2-[bis[3-[[2-[2-[2-[[2-[2-[2-[[2-[2-[2-[[2-[2-[2-[[2-[2-[2-[[2-[2-[2-[[(4S)-4-carboxy- … (peptide)
peptide: H[Aib]EGTFTSDVSSYLEEQAAREFIAWLVRGRPK([Amino‑C3‑Gly(Bis)-code 2×AEEA-AEEA-AEEA-AEEA-AEEA-AEEA-γGlu-Trx-C20 diacid])
notes: analogue (8Aib, 22E, 26R, 34R, 37P, 38K) GLP-1(7-37)
For the molecule B2, in the assay with human GLP-1 receptor [1], the “EC50 (pM), in vitro potency” value was 15 pM. Besides, the IC50 with human GLP-1 receptor [2] was determined as 30 nM; with human GLP-1 receptor [3], 0.31 nM.

B3: N{Epsilon-35}-[2-[2-[2-[[2-[2-[2-[[2-[2-[2-[[2-[2-[2-[[2-[2-[2-[[2- … (peptide)
peptide: H[Aib]EGTFTSDVSSYLEEQAAREFIAWLVRK([AEEA-AEEA-AEEA-AEEA-AEEA-AEEA-Amino‑C3‑Gly(Bis)-code 2×γGlu-Trx-C20 diacid])RG
notes: X = Aib
With B3, the “EC50 (pM), in vitro potency” value in the assay with human GLP-1 receptor [1] came out at 9.5 pM. Further, the IC50 with human GLP-1 receptor [2] came out at 7.2 nM; in the assay with human GLP-1 receptor [3], 0.33 nM.

B4: N{Epsilon-36}-[2-[2-[2-[[2-[2-[2-[[2-[2-[2-[[2-[2-[2-[[2-[bis[3-[[(45)-4-carboxy-4-(17-carboxyheptadecanoylamino)butanoyl]amino]propyl]amino]acetyl]amino]ethoxy … (peptide)
peptide: H[Aib]EGTFTSDVSSYLEEQAAREFIEWLVRGK([AEEA-AEEA-AEEA-AEEA-Amino‑C3‑Gly(Bis)-code 2×γGlu-C18 diacid])G
On to B4, for which the “EC50 (pM), in vitro potency” value with human GLP-1 receptor [1] came to 7.1 pM. The IC50 with human GLP-1 receptor [2] was 110 nM; with human GLP-1 receptor [3], 1.1 nM.

B5: N{Epsilon-36}-[2-[2-[2-[[2-[2-[2-[[2-[2-[2-[[2-[2-[2-[[2-[2-[2-[[2- … (peptide)
peptide: H[Aib]EGTFTSDVSSYLEEQAAREFIAWLVRGK([AEEA-AEEA-AEEA-AEEA-AEEA-AEEA-Amino‑C3‑Gly(Bis)-code 2×γGlu-Trx-C20 diacid])G
On to B5, for which, in the assay with human GLP-1 receptor [3], the IC50 is 1.2 nM.

B6: N{Epsilon-36}-[2-[bis[3-[[2-[2-[2-[[2-[2-[2-[[2-[2-[2-[[2-[2-[2-[[(45)-4-carboxy-4-(17-carboxyheptadecanoylamino)butanoyl]amino]ethoxy]ethoxy]acetyl]amino]ethox … (peptide)
peptide: H[Aib]EGTFTSDVSSYLEEQAAREFIAWLVRGK([Amino‑C3‑Gly(Bis)-code 2×AEEA-AEEA-AEEA-AEEA-γGlu-C18 diacid])G
B6 came in with an IC50 in the assay with human GLP-1 receptor [3] of 0.68 nM.
